Here are results for three molecules from paper PMC6529632, “Robust Stoichiometry of FliW-CsrA Governs Flagellin Homeostasis and Cytoplasmic Organization in Bacillus subtilis” (mBio, 2019).

Where a chain is given by its changes, count along the chain named. Names and notes keep the numbering of the source.

For data set [1], the system named is FliW (Bacillus subtilis (3610?)). Put plainly: EMSA. Particulars: apparent Kd; FliW alone; 40 mM Tris-HCl pH 7.5, 4 mM MgCl2, 100 mM KCl, 20 ng/ul yeast RNA, 20 mM DTT, 10% glycerol, 4 U RNase inhibitor, 20 pM RNA, 37 C 30 min (FliW added for a …). (In general: A gel shift assay detects complexes by their altered migration in electrophoresis.)
Data set [2] concerns CsrA-WT-His6 (Bacillus subtilis (3610?)). Put plainly: EMSA. The settings on record: apparent Kd; main text gives 290 nM; 40 mM Tris-HCl pH 7.5, 4 mM MgCl2, 100 mM KCl, 20 ng/ul yeast RNA, 20 mM DTT, 10% glycerol, 4 U RNase inhibitor, 20 pM RNA, 37 C 30 min (FliW added for a …).
For data set [3], the system named is CsrA-N55D-strep (Bacillus subtilis (3610?)). Put plainly: EMSA. Particulars: apparent Kd; 40 mM Tris-HCl pH 7.5, 4 mM MgCl2, 100 mM KCl, 20 ng/ul yeast RNA, 20 mM DTT, 10% glycerol, 4 U RNase inhibitor, 20 pM RNA, 37 C 30 min (FliW added for a …).
Data set [4] has as its system CsrA-Hetero (CsrA-WT-His6/CsrA-N55D-strep) (Bacillus subtilis (3610?)). Put plainly: EMSA. Particulars: apparent Kd; main text gives 460 nM; 40 mM Tris-HCl pH 7.5, 4 mM MgCl2, 100 mM KCl, 20 ng/ul yeast RNA, 20 mM DTT, 10% glycerol, 4 U RNase inhibitor, 20 pM RNA, 37 C 30 min (FliW added for a …).
The target in data set [5] is T1, CsrA-Hetero (CsrA-WT-His6/CsrA-N55D-strep) N55D (Bacillus subtilis (3610?)) (UniProt P33911+P33911).
T1 sequence 1: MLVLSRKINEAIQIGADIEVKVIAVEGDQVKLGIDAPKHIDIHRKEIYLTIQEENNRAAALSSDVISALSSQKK
T1 sequence 2: T1 sequence 1 with N55D
Put plainly: EMSA. The settings on record: 40 mM Tris-HCl pH 7.5, 4 mM MgCl2, 100 mM KCl, 20 ng/ul yeast RNA, 20 mM DTT, 10% glycerol, 4 U RNase inhibitor, 20 pM RNA, 37 C 30 min (FliW added for a …).

In data set [6] the target is T2, CsrA-N55D-strep N55D (Bacillus subtilis (3610?)) (UniProt P33911).
T2 sequence: T1 sequence 1 with N55D
Put plainly: EMSA. The settings on record: 40 mM Tris-HCl pH 7.5, 4 mM MgCl2, 100 mM KCl, 20 ng/ul yeast RNA, 20 mM DTT, 10% glycerol, 4 U RNase inhibitor, 20 pM RNA, 37 C 30 min (FliW added for a …).

In data set [7] the target is T3, FliW (Bacillus subtilis (3610?)) (UniProt P96503).
T3 sequence: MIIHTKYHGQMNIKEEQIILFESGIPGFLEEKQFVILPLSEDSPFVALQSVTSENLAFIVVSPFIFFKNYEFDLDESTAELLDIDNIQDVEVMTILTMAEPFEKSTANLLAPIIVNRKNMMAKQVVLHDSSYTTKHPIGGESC
Put plainly: EMSA. The settings on record: 40 mM Tris-HCl pH 7.5, 4 mM MgCl2, 100 mM KCl, 20 ng/ul yeast RNA, 20 mM DTT, 10% glycerol, 4 U RNase inhibitor, 20 pM RNA, 37 C 30 min (FliW added for a …).

The target in data set [8] is T4, CsrA-WT-His6 (Bacillus subtilis (3610?)) (UniProt P33911).
T4 sequence: T1 sequence 1
Put plainly: EMSA. Particulars: 40 mM Tris-HCl pH 7.5, 4 mM MgCl2, 100 mM KCl, 20 ng/ul yeast RNA, 20 mM DTT, 10% glycerol, 4 U RNase inhibitor, 20 pM RNA, 37 C 30 min (FliW added for a …).

Data set [9] concerns the target T5, CsrA^N55D-strep (monomer co-expressed with CsrA^WT-His6) (Bacillus subtilis, UniProt P33911 1-74, N55D).
T5 construct: CsrA of Bacillus subtilis with N55D; Same chain as in m2 and m3; Written as a single chain for the pair row of the heterodimer; also called CsrA^N55D-strep tag; source: Rosetta-gami E. coli, co-expressed with CsrA^WT-His6 from dual-expression vector pRO76
T5 sequence (looked up): T1 sequence 1 with N55D
Put plainly: sequential affinity co-purification with SDS-PAGE; both chains co-expressed from one vector in E. coli; Ni-NTA by the His6 tag, then Strep-Tactin by the Strep tag, then size exclusion; Coomassie-stained denaturing gel, densitometry. Particulars: partners not purified. In general terms: In gel filtration, larger molecules generally elute earlier.

For the molecule hag 5' UTR transcript +1 to +100, the Kd came to 1110 nM in data set [1], 287 nM in [2], 960 nM in [3] and 458 nM in data set [4].

Turning to “GGUAGCCGGGAGGAGGCGCAAAAGACUCAGCCAGUUACAAAAUAAGGGCACAAGGACGUGCCUUAACAACAUAUUCAGGGAGGAACAAAACAAUGAGAAUU [hag 5' UTR transcript +1 to +100]”, the Kd in [5] turned out to be 458 nM; in [6] it was 960 nM; in data set [7], 1110 nM; in data set [8], 287 nM. The binding result in [6] is “binds”.

B1: CsrA^WT-His6 (monomer co-expressed with CsrA^N55D-strep) (natural protein, Bacillus subtilis, UniProt P33911 1-74, looked up)
chain: T1 sequence 1
notes: CsrA of Bacillus subtilis, wild type, amplified from pCSB9; Same chain as in m1 and m3; Written as a single chain for the pair row of the heterodimer; also called CsrA-His6; source: Rosetta-gami E. coli, co-expressed with CsrA^N55D-strep from dual-expression vector pRO76
The term stoichiometry N denotes the number of molecules, sites or subunits per partner or assembly. Take B1: the “stoichiometry N” value in [9] came to 0.88.
